In test [1] the target is T1, CASQ1, human recombinant protein (human, UniProt P31415 35-396).
T1 sequence (looked up): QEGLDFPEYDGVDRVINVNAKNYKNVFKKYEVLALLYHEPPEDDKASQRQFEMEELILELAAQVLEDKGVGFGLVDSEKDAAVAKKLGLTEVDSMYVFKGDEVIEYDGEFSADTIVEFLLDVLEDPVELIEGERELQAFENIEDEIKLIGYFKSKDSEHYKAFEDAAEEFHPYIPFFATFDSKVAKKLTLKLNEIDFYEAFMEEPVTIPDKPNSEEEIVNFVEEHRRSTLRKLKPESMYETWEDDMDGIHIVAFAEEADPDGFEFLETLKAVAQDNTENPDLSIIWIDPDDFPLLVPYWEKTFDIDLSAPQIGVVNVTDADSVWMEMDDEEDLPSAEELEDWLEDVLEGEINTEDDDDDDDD
In words: phage-binding assay.

Test [2] deals with T2, CALR, human recombinant protein (human, UniProt P27797 18-417).
T2 sequence (looked up): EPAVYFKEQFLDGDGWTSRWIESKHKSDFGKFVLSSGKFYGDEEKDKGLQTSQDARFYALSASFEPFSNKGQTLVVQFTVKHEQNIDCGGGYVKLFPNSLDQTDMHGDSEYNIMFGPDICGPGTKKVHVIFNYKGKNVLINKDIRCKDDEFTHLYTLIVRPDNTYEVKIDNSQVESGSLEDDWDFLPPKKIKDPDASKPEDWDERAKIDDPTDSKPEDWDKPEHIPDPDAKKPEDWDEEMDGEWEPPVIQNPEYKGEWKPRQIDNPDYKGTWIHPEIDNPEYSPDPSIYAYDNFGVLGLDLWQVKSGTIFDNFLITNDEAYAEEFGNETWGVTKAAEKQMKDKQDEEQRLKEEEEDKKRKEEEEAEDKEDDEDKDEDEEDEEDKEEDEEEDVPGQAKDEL
In words: circular dichroism.

A further test addresses T3, cystatin-A (human, UniProt P01040 1-98).
T3 sequence (looked up): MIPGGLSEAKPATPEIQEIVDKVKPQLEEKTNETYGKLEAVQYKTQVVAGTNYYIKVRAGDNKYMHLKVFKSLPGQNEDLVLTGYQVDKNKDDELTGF
In words: phage-binding assay.

Test [3] addresses T4, histidine-rich glycoprotein (human, UniProt P04196 19-525).
T4 sequence (looked up): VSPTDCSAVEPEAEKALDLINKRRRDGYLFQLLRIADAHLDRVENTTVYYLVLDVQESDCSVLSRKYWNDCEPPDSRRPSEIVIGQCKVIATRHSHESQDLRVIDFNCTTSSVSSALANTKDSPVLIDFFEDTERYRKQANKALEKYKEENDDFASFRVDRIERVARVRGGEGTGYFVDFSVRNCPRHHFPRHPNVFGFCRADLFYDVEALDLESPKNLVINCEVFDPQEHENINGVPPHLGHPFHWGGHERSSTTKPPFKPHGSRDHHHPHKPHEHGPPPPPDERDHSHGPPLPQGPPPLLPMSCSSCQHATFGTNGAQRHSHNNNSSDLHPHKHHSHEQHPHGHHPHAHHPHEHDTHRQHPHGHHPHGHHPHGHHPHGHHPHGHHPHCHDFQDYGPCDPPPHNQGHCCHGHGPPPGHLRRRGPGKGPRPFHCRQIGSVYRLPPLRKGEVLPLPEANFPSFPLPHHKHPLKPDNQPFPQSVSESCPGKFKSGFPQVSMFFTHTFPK
In words: phage-binding assay.

For test [4], the target named is HSP27, human recombinant protein (human, UniProt P04792 1-205). In words: phage-binding assay.

Bridge positions count the residues as written; N and C are the ends. Ends that are not written are not given here.

The results in this text go back to paper PMC12955825 (Med (New York, N.Y.), 2025).

Chain of HSP27, human recombinant protein (P04792 whole entry): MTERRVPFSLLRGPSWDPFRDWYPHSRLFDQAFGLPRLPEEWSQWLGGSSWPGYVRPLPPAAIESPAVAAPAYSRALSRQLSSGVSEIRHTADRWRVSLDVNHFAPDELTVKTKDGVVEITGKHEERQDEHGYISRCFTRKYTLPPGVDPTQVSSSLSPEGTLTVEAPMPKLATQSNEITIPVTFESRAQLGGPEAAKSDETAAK

B1: CLRGFPALVC peptide (C1-C10 disulfide bridge) (peptide)
peptide: CLRGFPALVC
modifications: disulfide 1-10
For the molecule B1, in test [1], the binding result is “binds”.

B2: CRQRPASGC peptide (C1-C9 disulfide bridge) (peptide)
peptide: CRQRPASGC
modifications: disulfide 1-9
In the case of B2, the binding result in test [2] is on record as “binds”.

B3: CEARASGSRC-displaying phage (peptide)
peptide: CEARASGSRC
modifications: disulfide 1-10
In the case of B3, the binding result with cystatin-A was “binds”.

B4: CVGQVGGRRC-displaying phage (peptide)
peptide: CVGQVGGRRC
modifications: disulfide 1-10
On to B4, for which the binding result in test [3] is “binds”.

B5: CSEIGVRAC peptide (C1-C9 disulfide bridge) (peptide)
peptide: CSEIGVRAC
modifications: disulfide 1-9
Regarding B5, the binding result in test [4] is “binds”.
